Numbering of substitutions follows the chain as printed.

T1: Recombinant hIL-36R protein (Acrobio, Cat #IL2-H52H6) (human, UniProt Q9HB29 20-335)
T1 construct: Bought soluble protein; also called recombinant human IL-36R protein
T1 sequence: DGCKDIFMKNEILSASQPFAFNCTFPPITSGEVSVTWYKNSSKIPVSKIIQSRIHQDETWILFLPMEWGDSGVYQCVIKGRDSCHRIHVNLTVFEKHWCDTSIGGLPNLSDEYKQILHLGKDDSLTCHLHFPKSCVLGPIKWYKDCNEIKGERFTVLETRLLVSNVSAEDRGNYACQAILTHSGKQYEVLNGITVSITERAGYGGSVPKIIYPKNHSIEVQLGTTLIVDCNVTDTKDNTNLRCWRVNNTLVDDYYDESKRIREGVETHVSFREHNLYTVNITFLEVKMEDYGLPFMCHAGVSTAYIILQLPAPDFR

B1: 10F6 (antibody, V domains shown)
VH: QVQLQQSGAELVKPGASVRLSCKASGYTFTEFTIHWVKQRSGQGLEWIGWFYPGSDFIKYNEKFKDKATLTADKSSNTVYMELLRLTSEDSAVYFCARHEDRLSDYSYEWYFDVWGAGTAVTVSS
VL: DIQMTQSPASLSASVGETVTITCRASENIDSYLAWYQQKQGKSPQLLVYGATLLADGVPSRFSGSGSGTQYSLKINSLQSEDVAEYFCQHYYSIPLTFGAGTKLELK
notes: Mouse variable regions, recombinantly expressed
B2: 10D12 (antibody, V domains shown)
VH: QVQLQQPGTELVKPGASVKLSCKASGYTFTRYWMHWVRQRPGQGLEWIGNINPNIGRANYNEKFKNKATLTVDKSSSTAYMQLSSLTSEDSAVYYCARPGETTDYWGQGTTLTVSS
VL: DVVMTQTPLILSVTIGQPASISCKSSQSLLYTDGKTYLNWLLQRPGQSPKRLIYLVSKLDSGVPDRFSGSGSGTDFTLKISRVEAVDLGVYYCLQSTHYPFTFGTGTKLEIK
notes: as for B1
B3: 1A21 (antibody, V domains shown)
VH: EVQLQQSGPELVKPGDSVKISCKASGYSFTGYFMNWVMQSHGKSLEWIGRINPYNGDTFYNQKFKGKATLTVDKSSSTAHMELRSLTSEDSAVYYCAGLGHWYFDVWGTGTTVTVSS
VL: DIVMTQSTLSLPVSLGDQASISCRSSQSIVHSNGNTYLEWYLQKPGQSPKLLIYKVSNRFSGVPDRFSGSGSGTDFTLKISRVEAEDLGVYYCFQGSHVPWTFGGGTKLEIK
notes: as for B1
B4: 1C11 (antibody, V domains shown)
VH: EVQVQQSGTELVKPGASVKLSCKASGYTFTNYWLHWVKQRPGQGLEWIGNINPSNGGTNYNEKFKTKATLTVDKSSSTAYMQLSSLTSEDSAVYYCARYSTGFAYWGQGTLVTVSA
VL: DIVLTQTTASLAVSLGQRATISCRASESVDTYGASFMHWYQQKPGQPPKLLIYRASNLESGIPARFSGSGSRTDFTLTVNPVEADDVATYYCQQSNEDPRTFGGGTKLEIK
notes: as for B1
B5: 9H11 (antibody, V domains shown)
VH: QVQLQQSGPELVKPGASVKISCKASGYAFSHSWMNWVKQRPGKGLEWIGWIHLGDGDTYYNGKFKGKATLTADKSSSTAYMQLSSLTSEDSAVYFCARSDGNYVPYAMDYWGQGTSVTVSS
VL: DIVITQTTSSLSASLGDRVTISCRASQDISNYLSWYQQKPDGTVKLLIYYTSRLHSGVPSRFSGSGSGTDYSLTISSLEQEDIATYFCQQDSEHPWTFGGGTELDVR
notes: as for B1
B6: 5F7-2c4 (antibody, human IgG4 S228P, kappa, V domains shown)
VH: EVQLVESGGGLVKPGGSLRLSCAASGFAFTDYYLRWVRQAPGKGLEWVALIRNKAAGYTIYYSAPVKGRFTISRDDSKSTLYLQMNSLKTEDTAVYYCVRDMTIYDGYYVDYALDYWGQGTLVTVSS
VL: DIVMTQSPSSVSASVGDRVTITCRASRNINIWLSWYQQKPGKAPKLFIYKASNLHTGVPSRFSGSGSGTDFTLTISSLQPEDFATYYCLQSQSYPLTFGQGTKLEIKR
B7: 5F7-2g10 (antibody, human IgG4 S228P, kappa, V domains shown)
VH: B6 VH with R35S
VL: B6 VL
B8: 5F7-2d3 (antibody, human IgG4 S228P, kappa, V domains shown)
VH: B6 VH with A28N, L34M, R35N
VL: B6 VL
B9: 5F7-2h1 (antibody, human IgG4 S228P, kappa, V domains shown)
VH: B6 VH with F27Y, L34M, R35N
VL: B6 VL

The first assay concerns the target T1, Recombinant hIL-36R protein (Acrobio, …). Kind of assay: BLI (Gator), antibody on Protein A sensor, hIL-36R analyte; stands under the head kon(1/s), read as koff from KD = koff/kon.
Description: (§1) Antibodies was immobilized onto Protein A biosensor after balance. A baseline was detected for 60 seconds. And then antibody-antigen association was detected for 180 seconds to get the Kon factor data. Followed by dissociation in kinetic buffer for 180 seconds to get the Koff factor data. The regeneration of biosensors was in buffer 10 mM glycine, pH2.0. All the kinetics data were collected at 30° C. Data were acquired with Gator Bioanalysis System.
Turning to B1, the koff – broadly, the first-order rate constant of dissociation – came to 0.000137 s⁻¹.
On to B2, for which the koff worked out at 0.000321 s⁻¹.
Take B3: the koff stood at 4.01e-05 s⁻¹.
Same read-out and setting: under B4 stands 0.000872 s⁻¹; under B5, 5.79e-07 s⁻¹.

The next assay has the same target. Kind of assay: BLI (Gator), antibody on Protein A sensor, hIL-36R analyte.
Description: as §1
Consider B1, for which the Kd – broadly, the concentration at which binding is half-saturated – was found to be 0.901 nM.
For the molecule B2, the Kd was determined as 4.03 nM.
Same read-out and setting: under B3 stands 0.536 nM.
The same measure, in the same setting: for B4 the value was 13.7 nM; for B5, 0.00631 nM.

The target is the same in another assay. Description: BLI (Gator), antibody on Protein A sensor, hIL-36R analyte; stands under the head koff(1/Ms), read as kon from KD = koff/kon.
Description: as §1
Turning to B1, the kon (commonly the rate constant with which the complex forms) stood at 152000 M⁻¹ s⁻¹.
As to B2, the kon was 79800 M⁻¹ s⁻¹.
The same measure, in the same setting: for B3 the value was 74900 M⁻¹ s⁻¹; for B4, 63800 M⁻¹ s⁻¹.
Still for that read-out and setting: for B5 the value was 91700 M⁻¹ s⁻¹.

For the next assay the target is unchanged. Kind of assay: BLI (Gator).
Description: as §1
B6: the Kd was 2060 nM, the koff is 0.000418 s⁻¹ and the kon is 203 M⁻¹ s⁻¹.
For B7, the Kd stood at 0.638 nM, the koff was found to be 1.84e-05 s⁻¹ and the kon was found to be 28900 M⁻¹ s⁻¹.
On the same counts, the results for B8 are 2.46 nM, 8.83e-05 s⁻¹ and 35900 M⁻¹ s⁻¹.
Regarding B9, the Kd is less than 0.1 nM and the kon was found to be 41000 M⁻¹ s⁻¹.

Values taken from patent US20250002593A1 (INMAGENE PTE, published 2025).
